In the experiment the target is T1, anti-PDL1 activatable antibody PL07-2001-C5H9v2 (intact).
T1 construct: In the Wes assay the sample is separated by SDS-based capillary electrophoresis before probing; also called AA
As to the kind of experiment: Wes capillary electrophoresis immunoassay, mouse plasma.

T1 sequence (heavy, as listed by the source, chain 1 of 2): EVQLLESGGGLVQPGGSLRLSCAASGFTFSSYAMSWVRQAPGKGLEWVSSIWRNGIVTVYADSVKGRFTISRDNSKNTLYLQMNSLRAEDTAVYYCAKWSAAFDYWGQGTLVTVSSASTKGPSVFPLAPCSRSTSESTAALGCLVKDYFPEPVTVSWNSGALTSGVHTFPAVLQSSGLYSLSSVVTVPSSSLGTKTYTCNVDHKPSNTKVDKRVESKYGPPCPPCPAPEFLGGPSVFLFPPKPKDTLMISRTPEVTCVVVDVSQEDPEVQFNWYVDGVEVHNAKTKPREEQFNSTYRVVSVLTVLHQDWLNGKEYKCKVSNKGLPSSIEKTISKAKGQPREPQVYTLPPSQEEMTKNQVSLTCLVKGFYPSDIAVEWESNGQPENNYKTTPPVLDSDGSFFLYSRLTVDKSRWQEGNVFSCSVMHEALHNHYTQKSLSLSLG
T1 sequence (light, as listed by the source, chain 2 of 2): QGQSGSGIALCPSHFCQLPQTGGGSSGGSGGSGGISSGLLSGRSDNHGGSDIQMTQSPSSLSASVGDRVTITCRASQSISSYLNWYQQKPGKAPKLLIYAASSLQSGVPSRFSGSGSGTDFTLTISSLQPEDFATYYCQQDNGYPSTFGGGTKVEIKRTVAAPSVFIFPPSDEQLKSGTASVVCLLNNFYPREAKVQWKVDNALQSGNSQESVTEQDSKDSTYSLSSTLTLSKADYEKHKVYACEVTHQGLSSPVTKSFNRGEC

B1: anti-idiotypic antibody 17G1 (antibody, mouse IgG2a, kappa, V domains shown)
VH: EVQLVESGGDLVKPGGSLKVSCAASGFTFSSYGMSWVRQTPDKRLEWVATISPSGIYTYYPVTVKGRFTISRDNAKNTLYLQMSSLKSEDTAMYFCARHHPNYGSTYLYYIDYWGQGTALTVSS
VL: NIMMTQSPSSLAVSAGEKVTMACKSSQSVFSSSNQKNYLAWYQQKPGQSPKILIYWAFTRESGVPDRFSGSGSGTDFTLTISSVQAEDLAVYYCYQYLSSLTFGAGTKLEVKA
notes: Mouse monoclonal, mIgG2a heavy chain and mouse kappa light chain; also called anti-id antibody 17G1; anti-id 17G1 antibody
As to B1, the binding result is given as “binds”.

For the origin of these results see US20210025877A1 (CYTOMX THERAPEUTICS, published 2021).
